Consider 2 molecules from paper PMC3218035, “Nuclear Exportin Receptor CAS Regulates the NPI-1–Mediated Nuclear Import of HIV-1 Vpr” (PLoS ONE, 2011).

For orientation: Kd means the constant that tells how readily two partners part at equilibrium.

Experiment [1] addresses T1, GST-tagged NPI-1 (importin α5), full-length (human, UniProt P52294 1-538).
T1 construct: also called GST-NPI-1; SPR1; source: E. coli BL21 CodonPlus (DE3)-RIL, purified (Glutathione Sepharose 4FF)
The experiment can be described thus: pull-down. Conditions: both partners purified.

Experiment [2] deals with T2, Qip1 (importin α3), full-length, GST cleaved (human, UniProt O00629 1-521).
T2 construct: also called Qip1_(full); full-length Qip1; source: E. coli BL21 CodonPlus (DE3)-RIL, purified (Glutathione Sepharose 4FF), GST cleaved with PreScission protease
T2 sequence (looked up): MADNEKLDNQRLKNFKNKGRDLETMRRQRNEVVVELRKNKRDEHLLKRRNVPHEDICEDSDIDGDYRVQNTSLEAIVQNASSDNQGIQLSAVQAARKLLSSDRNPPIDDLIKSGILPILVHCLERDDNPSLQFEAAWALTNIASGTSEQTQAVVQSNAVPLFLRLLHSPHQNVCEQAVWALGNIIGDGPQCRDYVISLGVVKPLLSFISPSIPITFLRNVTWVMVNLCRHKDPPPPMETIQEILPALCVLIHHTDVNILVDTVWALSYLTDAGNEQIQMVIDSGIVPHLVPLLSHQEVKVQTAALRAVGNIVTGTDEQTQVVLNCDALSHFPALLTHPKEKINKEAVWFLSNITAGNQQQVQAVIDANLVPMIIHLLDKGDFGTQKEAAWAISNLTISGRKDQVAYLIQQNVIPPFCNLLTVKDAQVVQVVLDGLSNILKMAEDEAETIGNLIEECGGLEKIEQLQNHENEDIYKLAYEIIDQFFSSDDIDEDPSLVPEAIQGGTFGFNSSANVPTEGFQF
In words: SPR. Particulars: both partners purified.

In experiment [3] the target is T3, Qip1 392–537 C-terminal peptide mutant, GST cleaved (human, UniProt O00629 392-521).
T3 construct: also called Qip1 394–521 (methods); source: E. coli BL21 CodonPlus (DE3)-RIL, purified (Glutathione Sepharose 4FF), GST cleaved with PreScission protease
T3 sequence (looked up): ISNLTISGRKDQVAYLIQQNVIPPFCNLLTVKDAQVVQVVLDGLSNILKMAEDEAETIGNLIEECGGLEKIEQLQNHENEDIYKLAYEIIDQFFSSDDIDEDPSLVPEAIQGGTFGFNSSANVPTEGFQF
In words: SPR. Particulars: both partners purified.

The target in experiment [4] is T4, NPI-1 (importin α5), full-length, GST cleaved (human, UniProt P52294 1-538).
T4 construct: also called NPI-1_(full); full-length NPI-1; source: E. coli BL21 CodonPlus (DE3)-RIL, purified (Glutathione Sepharose 4FF), GST cleaved with PreScission protease
T4 sequence (P52294 whole entry): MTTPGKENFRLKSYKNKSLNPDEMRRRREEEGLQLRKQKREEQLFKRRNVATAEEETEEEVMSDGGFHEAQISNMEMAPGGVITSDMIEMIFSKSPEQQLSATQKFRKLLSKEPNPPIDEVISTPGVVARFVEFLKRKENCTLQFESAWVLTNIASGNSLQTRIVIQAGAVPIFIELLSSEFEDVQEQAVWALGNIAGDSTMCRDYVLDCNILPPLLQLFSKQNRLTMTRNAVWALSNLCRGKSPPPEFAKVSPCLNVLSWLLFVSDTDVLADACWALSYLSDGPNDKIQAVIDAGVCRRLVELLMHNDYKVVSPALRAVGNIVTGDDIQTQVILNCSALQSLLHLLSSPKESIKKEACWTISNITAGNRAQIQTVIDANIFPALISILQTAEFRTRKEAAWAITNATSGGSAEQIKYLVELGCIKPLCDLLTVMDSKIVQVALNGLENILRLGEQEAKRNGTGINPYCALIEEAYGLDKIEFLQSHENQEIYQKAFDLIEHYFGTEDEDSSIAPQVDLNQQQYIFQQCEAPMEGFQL
The experiment can be described thus: SPR. Conditions: both partners purified.

Experiment [5] has as its target T5, Rch1 404–529 C-terminal peptide mutant, GST cleaved (human, UniProt P52292 404-529).
T5 construct: also called Rch1 C-terminal peptide; source: E. coli BL21 CodonPlus (DE3)-RIL, purified (Glutathione Sepharose 4FF), GST cleaved with PreScission protease
In words: SPR. Particulars: both partners purified.

Experiment [6] addresses T6, NPI-1 404–541 C-terminal peptide mutant, GST cleaved (human, UniProt P52294 404-538).
T6 construct: also called NPI-1 406–538 (methods); source: E. coli BL21 CodonPlus (DE3)-RIL, purified (Glutathione Sepharose 4FF), GST cleaved with PreScission protease
In words: SPR. Conditions: both partners purified.

Experiment [7] has as its target Rch1 (importin α1), full-length, GST cleaved (human), P52292. The experiment can be described thus: SPR. Conditions: remark: other sources report otherwise.

T1 sequence (P52294 whole entry): as above
T6 sequence (P52294 404-538, change not shown): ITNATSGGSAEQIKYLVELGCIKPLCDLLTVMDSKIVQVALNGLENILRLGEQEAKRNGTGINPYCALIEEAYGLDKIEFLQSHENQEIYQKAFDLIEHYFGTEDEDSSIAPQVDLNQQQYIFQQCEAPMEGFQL

B1: cellular apoptosis susceptibility (CAS) protein, recombinant (natural protein, UniProt P55060 1-971, looked up)
chain: MELSDANLQTLTEYLKKTLDPDPAIRRPAEKFLESVEGNQNYPLLLLTLLEKSQDNVIKVCASVTFKNYIKRNWRIVEDEPNKICEADRVAIKANIVHLMLSSPEQIQKQLSDAISIIGREDFPQKWPDLLTEMVNRFQSGDFHVINGVLRTAHSLFKRYRHEFKSNELWTEIKLVLDAFALPLTNLFKATIELCSTHANDASALRILFSSLILISKLFYSLNFQDLPEFFEDNMETWMNNFHTLLTLDNKLLQTDDEEEAGLLELLKSQICDNAALYAQKYDEEFQRYLPRFVTAIWNLLVTTGQEVKYDLLVSNAIQFLASVCERPHYKNLFEDQNTLTSICEKVIVPNMEFRAADEEAFEDNSEEYIRRDLEGSDIDTRRRAACDLVRGLCKFFEGPVTGIFSGYVNSMLQEYAKNPSVNWKHKDAAIYLVTSLASKAQTQKHGITQANELVNLTEFFVNHILPDLKSANVNEFPVLKADGIKYIMIFRNQVPKEHLLVSIPLLINHLQAESIVVHTYAAHALERLFTMRGPNNATLFTAAEIAPFVEILLTNLFKALTLPGSSENEYIMKAIMRSFSLLQEAIIPYIPTLITQLTQKLLAVSKNPSKPHFNHYMFEAICLSIRITCKANPAAVVNFEEALFLVFTEILQNDVQEFIPYVFQVMSLLLETHKNDIPSSYMALFPHLLQPVLWERTGNIPALVRLLQAFLERGSNTIASAAADKIPGLLGVFQKLIASKANDHQGFYLLNSIIEHMPPESVDQYRKQIFILLFQRLQNSKTTKFIKSFLVFINLYCIKYGALALQEIFDGIQPKMFGMVLEKIIIPEIQKVSGNVEKKICAVGITKLLTECPPMMDTEYTKLWTPLLQSLIGLFELPEDDTIPDEEHFIDIEDTPGYQTAFSQLAFAGKKEHDPVGQMVNNPKIHLAQSLHKLSTACPGRVPSMVSTSLNAEALQYLQGYLQAASVTLL
notes: also called CSE1L; source: E. coli BL21 CodonPlus (DE3)-RIL, purified (Glutathione Sepharose 4FF)
B1: the “mRFP-Vpr bound to GST-NPI-1 with CAS and Q69LRanGTP, fold of the sample without CAS” value in experiment [1] stood at 0.2 fold.

B2: GST-tagged-Vpr (natural protein)
chain: MEQAPEDQGPQREPYNEWTLELLEELKSEAVRHFPRIWLHNLGQHIYETYGDTWAGVEAIIRILQQLLFIHFRIGCRHSRIGVTRQRRARNGASRS
notes: also called GST-Vpr; source: E. coli, purified (GSH system, His-Trap column), dialyzed against transport buffer
Regarding B2, the Kd in experiment [2] was 6.8 µM; in experiment [3], 6.5 µM; in experiment [4] it was 7.4 µM; in experiment [5], 4.3 µM; in experiment [6] it was 6.7 µM; in experiment [7] it was 8.9 µM.
